# Source: paper PMC5177622, “Multivalent Histone and DNA Engagement by a PHD/BRD/PWWP Triple Reader Cassette Recruits ZMYND8 to K14ac-Rich Chromatin” (Cell Reports, 2016)
# Biological target: Histone H3 acetylated at K14 (endogenous, HEK293), P68431
# Experiment: anti-FLAG immunoprecipitation and western blot, quantified
# Conditions: chain shown with the change; HEK293 cells transiently transfected; three biological replicates; anti-H3K14ac blot; parent: est. 1.0; read off a plot
binder,measurement,value
"3×FLAG-ZMYND8 full length, wild type, Q9ULU4-13 N228F (protein) MDISTRSKDPGSAERTAQKRKFPSPPHSSNGHSPQDTSTSPIKKKKKPGLLNSNNKEQSELRHGPFYYMKQPLTTDPVDVVPQDGRNDFYCWVCHREGQVLCCELCPRVYHAKCLRLTSEPEGDWFCPECEKITVAECIETQSKAMTMLTIEQLSYLLKFAIQKMKQPGTDAFQKPVPLEQHPDYAEYIFHPMDLCTLEKNAKKKMYGCTEAFLADAKWILHNCIIYFGGNHKLTQIAKVVIKICEHEMNEIEVCPECYLAACQKRDNWFCEPCSNPHPLVWAKLKGFPFWPAKALRDKDGQVDARFFGQHDRAWVPINNCYLMSKEIPFSVKKTKSIFNSAMQEMEVYVENIRRKFGVFNYSPFRTPYTPNSQYQMLLDPTNPSAGTAKIDKQEKVKLNFDMTASPKILMSKPVLSGGTGRRISLSDMPRSPMSTNSSVHTGSDVEQDAEKKATSSHFSASEESMDFLDKSTASPASTKTGQAGSLSGSPKPFSPQLSAPITTKTDKTSTTGSILNLNLDRSKAEMDLKELSESVQQQSTPVPLISPKRQIRSRFQLNLDKTIESCKAQLGINEISEDVYTAVEHSDSEDSEKSDSSDSEYISDDEQKSKNEPEDTEDKEGCQMDKEPSAVKKKPKPTNPVEIKEELKSTSPASEKADPGAVKDKASPEPEKDFSEKAKPSPHPIKDKLKGKDETDSPTVHLGLDSDSESELVIDLGEDHSGREGRKNKKEPKEPSPKQDVVGKTPPSTTVGSHSPPETPVLTRSSAQTSAAGATATTSTSSTVTVTAPAPAATGSPVKKQRPLLPKETAPAVQRVVWNSSSKFQTSSQKWHMQKMQRQQQQQQQQNQQQQPQSSQGTRYQTRQAVKAVQQKEITQSPSTSTITLVTSTQSSPLVTSSGSMSTLVSSVNADLPIATASADVAADIAKYTSKMMDAIKGTMTEIYNDLSKNTTGSTIAEIRRLRIEIEKLQWLHQQELSEMKHNLELTMAEMRQSLEQERDRLIAEVKKQLELEKQQAVDETKKKQWCANCKKEAIFYCCWNTSYCDYPCQQAHWPEHMKSCTQSATAPQQEADAEVNTETLNKSSQGSSSSTQSAPSETASASKEKETSAEKSKESGSTLDLSGSRETPSSILLGSNQGSDHSRSNKSSWSSSDEKRGSTRSDHNTSTSTKSLLPKESRLDTFWD",ratio to parent,0.19
